The RNAGym collection of RNA variant scans (doi:10.1073/pnas.2313332121)
Variants at the floor of the assay were thinned out.

B1: TPR 5TU (parent)
chain: GGAUCUUCUCGAUCUAACAAAAAAGACAAAUCUGCCACAAAGCUUGAGAGCAUCUUCGGAUGCAGAGGCGGCAGCCUUCGGUGGCGCGAUAGCGCCAACGUUCUCAACUAUGACACGCAAAACGCGUGCUCCGUUGAAUGGAGUUUAUCAUG

Variants of: B1
Assay: polymerase ribozyme fitness, log enrichment relative to wild type (log ratio); higher = more active; in vitro selection for triplet polymerase activity
Procedure, shortened: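 PCR was used to build mutant libraries for each subunit of a heterodimeric triplet polymerase ribozyme, which were then transcribed. A single in vitro selection round, in triplicate, used a frozen incubation at −7 °C and recovered extended constructs by gel excision, streptavidin beads and RT-PCR. Fitness is the logarithm of genotype enrichment relative to wild-type enrichment, averaged over replicates with inverse-variance weights. The logarithm is base 2, and after Illumina sequencing only genotypes with ≥10 input reads and ≥1 read per output were kept.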

Point of comparison: GGAUCUUCUCGAUCUAACAAUAAAGACAAAUCUGCCACAAAGCUUGAGAGCAUCUUCGGAUGCAGAGGCGGCAGCCUUCGGUGGCGCGAUAGCGCCAACGUUCUCAACUAUGACACGCAAAACGCGUGCUCCGUUGAAUGGAGUUUAUCAUG, “polymerase ribozyme fitness (log ratio)” value 0.554. Against it:
- GGAUCUUCUCGAUCUAACAAUAAAGACACCUCUGCCACGAAGCAUGAGCGCAACUUCGGAUGCAGAGACGGCAGCCUUCGGUGGCGCGAUAGCGCCAACGUUCUUAACUAUGACACGCAAAACGCGUGCUCCGUUGAAUGGAGUUUAUCAUG — lower, ≤ -4.2
- GGAUCUUCUCGAUCUAACAAUAAUGACAAAUCUGCCACAAAGCUUGAGAGCGUCUUCGGAUGCAGAGGCGUCAGCCUUCGGUGGCGCGACAGCGCCAACGUUCUCAACUAUGACACGCAAAAUGCUUGCUCCGUUGAAUGGAGAUUCUCAAG — lower, ≤ -4.2
- GGAUCUUCUCGAUCUAACAAUAUCGACAAAUCUGCCACAAAGCUUGAGAGCAUUUUCGGAUGCAGAGGCGGCAGCCUUCGAUGGUGCGAUAGCGCCAACGUUCUCAACUAUGACACGCAAAACGCGUGCUCCGUUGAAUGGAGUUUAUCAUG — lower, ≤ -4.2
- GGAUCUUCUCGAUCUAACAAUAAAGACAAGUCUGCCACAAAGCUUGAGAGCAUCUUCGGAUGCAGAGGCGGCAGCCUUCGGUGGCGCGAUAGCGCCAACGUUCUCAACUAUGACACGCAAAACGCGUGCUCCGUUGAAUGGAGUUUAUCAUG — lower, -3.62
- GGAUCUUCUCGAUCUAACAAUAAAGACAAAUCUGCCACUAAGCUUGAGAGCAUCUUCGGAGGCAGAGGCGGCAGCCUUCGGUGGCGCGAUAUCGCCAACGUUCUCAAAUAUGACACGCAAAACGCGUGCUCCGUUGAAUGAAGUUUAUCAUG — lower, ≤ -4.2
- GGAUCUUCUCGAUCUAACAAUAAAGACACAUCUGCCACAAAGCUUGAGAGCAUCUUCGGAUGCAGAGGCGGCAGCCUUCGGUGGCGCGAUAACGCCAAUGUUCUCAACUAUGACACUCAAAACGCGUGCGCCGUUGAAUGGAGUUUAUCAUG — lower, -3.76
- GGAUCUUCUCGAUCUAACAAGAAAGACAAAUCUGCCACAAAGCUUGAGAGCAUCUUCGGAUGCAGAGGCAGCAGCCUUCGGUGGCGCGAUAGCGCCAACGUUCUCAACUAUGACACGCAAAACGCGUGCUCCGUUGAAUGGAGUUUAUCAUG — lower, -3.35
- GGAUCUUCUCGAUCUAACAAUAAAGCCAAAUCUGCCACAAAGCUUGAGAGCAUCUUCGGAUGCAGAGGAGGCAGCCUUCGGUGUCGCGAUAGCGCCAACGUUCUCAACUAUGACACGCAAAACGCGUGCUCCGUUGAAUGGAGUUUAUCAUG — lower, -3.67
- GGAUCUUCUCGAUCUAACAAUAAAGACAAAUCUGCCACUAAGGUUGAGACCAUCUUCGGAUGCAGAGGCGGCAGCCUUCGGUGGCGCGAUAACGCCAACGUUCUCAACUAUGACACGCAAAACGCGUGCUCCGUUGAAUGUAGUUUAUCAUG — lower, ≤ -4.2
- GGAUCUUCUCGAUCUAACAAUAAAGACAAAUCUGCCACCAAGCUUGAGAGCAUCUUCAGAUGCAGAGGCGGCAGCCUUCGGUGGCGCGAUAGCCCCAACGUUCUCAACUAUGACACGCAAAACGGGUGCUCCGUUGAAUGGAGUUUAGCAUG — lower, ≤ -4.2
- GGAUCUUCUCGAUCUAACAAUAAAGACAAAUCUGCCACAAAGCUUGAGGGCAUCUUCGGAUGCAGAGGCGGCAGCCUUCGGUGGCGCGAUAGCGCCAGCGUUCUCAACUAUGACACGCAAAACGCGUGCUCCGUUGAAUGGAGUUUAUCAUG — lower, -0.555
- GGAUCUUCUCGAUCUAACAAUAAAGACAAAUCUGCCACAAGGCUUGAGAGCAUCUUCGGAUGCAGAGGCGGCAGCCUUCGGUGGCGCGAUAGCGCCAACGUUCUCAACUAUGACACGCAAAACGCGUGCUCCGUUGAAUGGAGUUUAUCAUG — higher, 1.06
- GGAUCUUCUCGAUCUAACAAUAUAGACACAUCUGGCACAAAGCUUGAAAGCAUCUUCGGAUGCAGAGGCGGCAGCCUUCGGUGGCGCGAUAGCGCCAACGUUCUCAACUAUGACACGCAAAACGCGUGCUCCGUUGAAUGGAGUUUAUCAUG — lower, ≤ -4.2
- GGAUCUUCUCGAUCUAACAAUAUCGACAAAUCUGCCACAAAGCUUGAGAGCAUUUUCGGAUGCAGAGGCGGCAGCCUUCGAUGGUGCGAUAGCGCCAACGUUCUCAACUAUGACACGCAAAACGCGUGCUCCGUUGAAUGGAGUUUCUCAUG — lower, ≤ -4.2
- GGAUCUUCUCGAUCUAACAAUAGAGGCAAAUCUGCCACAAAGCUUGAGAGCAUCUUCGGAUGCAGAGGCGGCAGCCUUCGGUGUCUCGAUAGCGCCAACGUUCUCAACUAUGACACGCAAAACGCGUGCUCCGUUUAAUGGAGUUUAGCAUG — lower, ≤ -4.2
- GGAUCUUCUCGAUCUAACAAUAUAGACAAAUCUGCCACAAAGCUUGAGAGCAUUUUCAGAUGCAGAGGCGGCAGCCUUCGGUGGCGCGAUAUCGCCAACGUUCUCAACUAUGACACGCAAAACGCGUGCUCCGUUGAAUGGAGUUUAUCAUG — lower, ≤ -4.2
- GGAUCUUCUCGAUCUAACAAUAAAGACCAAGCUGCCACAAAGCUUGGGAGCAUCUUCGGAUGCAGAGGCGGCAGCCUUCGGUGGUGCGAUAGCGCCAACGUUCUCAACUAUGACAGGCAAAACGCGUGAUCCAUUGAAUGGAGUUUAUCAUG — lower, ≤ -4.2
- GGAUCUUCUCGAUCUAACAAGAAAGACAAAUCUGCCACAAAGCUUGAGAGCAUCUUCGGAUGCAGAGGCGGCAGCCUUCGGUGGCGCGAUAGCGCCAACGUUCUCAACUAUGACACGCAAAACGCGUGCUCCGUUGAAUGAAGUUUAUCAUG — higher, 1.12
